The results in this text go back to patent US6875737.

The target in the assay is T cell receptor of the murine 2B4 T cell hybridoma. Description: cell-based or functional assay.

“KbP-S-MCC (Lys-boroPro coupled through a spacer linker to the N terminus of moth cytochrome C peptide 94-103) (from UniProt P00039 94-103)” registered an IL-2 production in 2B4 cells at 0.4 µM KbP-S-MCC, against the maximum response obtained with the MCC peptide alone of over 2 fold.
Consider “Moth cytochrome C peptide MCC 94-103 (from UniProt P00039 94-103)”, for which the IL-2 production in 2B4 cells: concentration needed for the maximum response, against 0.4 µM KbP-S-MCC (fold higher concentration) came to 10.
